Experimental findings from patent US20140004107A1 are described below.

The target in this assay is human ST2 on human primary cells (human) (UniProt Q01638). As to the kind of experiment: cell-based or functional assay.
Sequence of human ST2 on human primary cells (human) (Q01638 19-556 A78X): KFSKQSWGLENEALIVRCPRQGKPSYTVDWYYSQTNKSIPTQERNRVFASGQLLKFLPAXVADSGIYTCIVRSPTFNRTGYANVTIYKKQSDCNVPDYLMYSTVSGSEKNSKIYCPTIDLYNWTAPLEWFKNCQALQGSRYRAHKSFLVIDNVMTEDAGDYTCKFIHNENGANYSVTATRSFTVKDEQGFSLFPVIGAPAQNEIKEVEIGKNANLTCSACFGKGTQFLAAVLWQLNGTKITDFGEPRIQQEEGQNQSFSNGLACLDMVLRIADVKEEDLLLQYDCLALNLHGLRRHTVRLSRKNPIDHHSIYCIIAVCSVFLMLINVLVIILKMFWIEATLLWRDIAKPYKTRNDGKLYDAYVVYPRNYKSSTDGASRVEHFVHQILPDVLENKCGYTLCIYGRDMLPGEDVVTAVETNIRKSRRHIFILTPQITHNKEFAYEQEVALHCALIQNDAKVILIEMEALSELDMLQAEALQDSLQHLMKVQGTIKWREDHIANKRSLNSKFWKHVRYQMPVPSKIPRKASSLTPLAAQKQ

With 97203 (antibody), the IC50 of inhibition of IL-33-dependent IFN-γ response of human NK cells (IL-33 10 ng/mL plus IL-12) was 0.385 mg/L.
